{
  "source": "paper doi:10.1101/2022.09.26.507980",
  "about": "(bioRxiv, 2022)",
  "target": "T1, NiV-F wild type expressed on 293T cells (Nipah virus, UniProt Q9IH63)",
  "T1 construct": "source: HEK293T, transiently transfected, on cells",
  "experiment": "flow cytometry on cells",
  "conditions": "one partner purified",
  "data": [
    {"binder": "mAb92 (antibody, V domains shown, also called monoclonal antibody 92) VH: QSLEESGGRLVTPGTPLTLTCTASGFSLSSYYMMWVRQAPGKGLEWIGIINTGGNAYYASWTKGRFTISKTSTTVDLKITSPTTEDTATYFCARAVPSGAGYSAGGLWGPGTLVTVSS VL: DQVLTQTPASVEAAVGGTVTIKCQASQSVGFYLSWYQQKPGQPPKLLIYRASTLESGVPSRFKGSGSGTEFTLTISDLECADAATYYCQTNDYLASSAFGGGTEVVVR", "values": [
      {"measurement": "binding result", "value": "binds"}
    ]}
  ]
}
